The record followed here is PMC11698656.

In experiment [1] the target is ancestral human TRPV6 (R157, V378, T681) (human). As to the kind of experiment: cryo-EM structure.
Experiment [2] addresses derived human TRPV6 (C157, M378, M681) (human). As to the kind of experiment: cryo-EM structure.

As to “ancestral human TRPV6 (R157, V378, T681) (natural protein)”, the stoichiometry N (as a rule, a count of units in the complex or per binding partner) in experiment [1] was 4 subunits.

Consider “derived human TRPV6 (C157, M378, M681) (natural protein)”, for which, in experiment [2], the stoichiometry N is 4.

In experiment [1], “endogenous calmodulin (CaM) (from UniProt P0DP23 1-149) (natural protein)” returned a stoichiometry N (CaM per TRPV6 tetramer) of 1.
